Source: patent US20260242478A1 (published 2026)

B1: Phage-3564 (peptide)
peptide: SPSYCVPKWMCVGF
notes: Peptide-180 library clone, tested as clonal phage supernatant with the peptide fused to pIII of the bacteriophage
B2: Phage-3567 (peptide)
peptide: DAMLCRPSWMCDGF
notes: as for B1
B3: Phage-3572 (peptide)
peptide: VPTLCKPSWMCYGF
notes: as for B1
B4: Phage-3569 (peptide)
peptide: VAQWCTPSWMCDGF
notes: as for B1
B5: Phage-3563 (peptide)
peptide: EHRICVPQWMCTGF
notes: as for B1
B6: Phage-3568 (peptide)
peptide: PEAYCVPSWMCTGF
notes: as for B1
B7: Phage-3562 (peptide)
peptide: DDIRCEPIWMCTGF
notes: as for B1
B8: Phage-3570 (peptide)
peptide: VDKACTPAWMCTGF
notes: as for B1
B9: Phage-3566 (peptide)
peptide: VSTMCVPEWMCGGF
notes: as for B1
B10: Phage-3565 (peptide)
peptide: ELLKCVPQWMCTGF
notes: as for B1
B11: Phage-3574 (peptide)
peptide: EDIKCIPRWMCEGF
notes: as for B1
B12: Phage-3573 (peptide)
peptide: AWMRCEPAWMCVGF
notes: as for B1
B13: Phage-3571 (peptide)
peptide: EMPLCIPQWMCGGF
notes: as for B1
B14: Phage-3575 (peptide)
peptide: FIAQCQPTWMCTGF
notes: as for B1

Experiments:
PSMA Fab (006 PSMA Fab) [1] = molecular target: T1, PSMA Fab (006 PSMA Fab); assay: clonal phage ELISA on biotinylated PSMA Fab captured on neutravidin, anti-M13 HRP detection;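 further: crude clonal phage supernatants added to wells pretreated with PSMA antigen in blocking buffer or with blocking buffer only, then briefly incubated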
T1 construct: also called Anti-PSMA Fab
Method: (§1) Clonal phage were harvested as crude supernatants and screened via standard ELISAs. […] Prior to the addition of clonal phage. wells were incubated with blocking buffer and PSMA antigen or blocking buffer alone. Without washing or aspirating, clonal phage supernatants were then added to the wells and incubated for a short time. Wells were then washed followed by detection of bound phage using a horse radish conjugated anti-M13 antibody.

PSMA Fab (006 PSMA Fab) [2] = molecular target: T1, PSMA Fab (006 PSMA Fab); assay: clonal phage ELISA on captured PSMA Fab, wells pre-incubated with PSMA antigen as competitor
Method: as §1

Anti-PSMA Fab [3] = molecular target: T2, Anti-PSMA Fab (biotinylated (site not stated)); assay: clonal phage ELISA on biotinylated PSMA Fab captured on neutravidin plate, anti-M13 HRP detection
T2 construct: also called 006 PSMA Fab

Anti-PSMA Fab [4] = molecular target: T2, Anti-PSMA Fab; assay: clonal phage ELISA on captured PSMA Fab, wells pre-incubated with PSMA antigen as competitor, anti-M13 HRP detection;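 further: crude clonal phage supernatants added, with no intervening wash, to wells preincubated with PSMA antigen in blocking buffer, incubated briefly, then washed before detecting bound phage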
Method: as §1

Anti-PSMA Fab [5] = molecular target: T3, Anti-PSMA Fab; assay: phage binding ELISA; clonal phage supernatant on biotinylated anti-PSMA Fab captured on neutravidin plate; anti-M13-HRP detection
T3 construct: Biotinylated and captured on neutravidin coated plates in the phage ELISA; also called 006 PSMA Fab
Method: as §1

Anti-PSMA Fab [6] = molecular target: T3, Anti-PSMA Fab; assay: phage binding ELISA on captured anti-PSMA Fab; wells pre-incubated with PSMA antigen as competitor; anti-M13-HRP detection
Method: as §1

| Binder | Phage binding ELISA signal, Anti-PSMA Fab (PSMA Fab (006 PSMA Fab) [1]) | Phage binding ELISA signal, Anti-PSMA Fab in presence of PSMA (PSMA Fab (006 PSMA Fab) [2]) | Phage binding ELISA signal, Anti-PSMA Fab (Anti-PSMA Fab [5]) | Phage binding ELISA signal, Anti-PSMA Fab with PSMA antigen (Anti-PSMA Fab [6]) | further results |
| --- | --- | --- | --- | --- | --- |
| B1 | 1.64 | 0.0712 |  |  |  |
| B2 | 1.62 | 0.0871 |  |  |  |
| VVPLCVPMWMCSPM (Clonal phage of the Peptide-180 library) [Phage-3557] |  |  |  |  | Phage binding ELISA signal, Anti-PSMA Fab (Anti-PSMA Fab [3]): 1.64; Phage binding ELISA signal, Anti-PSMA Fab with PSMA antigen (Anti-PSMA Fab [4]): 0.0867 |
| GMGMCVPTWMCTGM (Tested as clonal phage supernatant) [Phage-3579 (Peptide-180 library clone)] |  |  | 1.62 | 0.0797 |  |
| YDVVCKPAWMCNGF (Tested as clonal phage supernatant) [Phage-3578 (Peptide-180 library clone)] |  |  | 1.62 | 0.0676 |  |
| ESHLCRPAWMCTGF (Tested as clonal phage supernatant) [Phage-3588 (Peptide-180 library clone)] |  |  | 1.6 | 0.089 |  |
| VVNFCKPQWMCSGF (Clonal phage of the Peptide-180 library) [Phage-3561] |  |  |  |  | Phage binding ELISA signal, Anti-PSMA Fab (Anti-PSMA Fab [3]): 1.64; Phage binding ELISA signal, Anti-PSMA Fab with PSMA antigen (Anti-PSMA Fab [4]): 0.0682 |
| NIMRCQPSWMCTGF (Tested as clonal phage supernatant) [Phage-3583 (Peptide-180 library clone)] |  |  | 1.61 | 0.064 |  |
| B3 | 1.62 | 0.0941 |  |  |  |
| VEPACVPLWMCFGL (Clonal phage of the Peptide-180 library) [Phage-3558] |  |  |  |  | Phage binding ELISA signal, Anti-PSMA Fab (Anti-PSMA Fab [3]): 1.64; Phage binding ELISA signal, Anti-PSMA Fab with PSMA antigen (Anti-PSMA Fab [4]): 0.0619 |
| B4 | 1.62 | 0.0794 |  |  |  |
| TFMRCEPVWMCDGF (Tested as clonal phage supernatant) [Phage-3585 (Peptide-180 library clone)] |  |  | 1.61 | 0.0709 |  |
| YEKLCEPRWMCDGF (Tested as clonal phage supernatant) [Phage-3577 (Peptide-180 library clone)] |  |  | 1.62 | 0.0657 |  |
| B5 | 1.64 | 0.0676 |  |  |  |
| ETFTCKPPWMCIGF (Tested as clonal phage supernatant) [Phage-3576 (Peptide-180 library clone)] |  |  | 1.62 | 0.104 |  |
| MERWCIPVWMCQGL (Clonal phage of the Peptide-180 library) [Phage-3560] |  |  |  |  | Phage binding ELISA signal, Anti-PSMA Fab (Anti-PSMA Fab [3]): 1.64; Phage binding ELISA signal, Anti-PSMA Fab with PSMA antigen (Anti-PSMA Fab [4]): 0.0734 |
| B6 | 1.62 | 0.0764 |  |  |  |
| B7 | 1.64 | 0.0657 |  |  |  |

| Binder | Phage binding ELISA signal, Anti-PSMA Fab (PSMA Fab (006 PSMA Fab) [1]) | Phage binding ELISA signal, Anti-PSMA Fab in presence of PSMA (PSMA Fab (006 PSMA Fab) [2]) | Phage binding ELISA signal, Anti-PSMA Fab (Anti-PSMA Fab [5]) | Phage binding ELISA signal, Anti-PSMA Fab with PSMA antigen (Anti-PSMA Fab [6]) | further results |
| --- | --- | --- | --- | --- | --- |
| B8 | 1.62 | 0.0716 |  |  |  |
| B9 | 1.63 | 0.122 |  |  |  |
| LGHWCSPTWMCMGF (Tested as clonal phage supernatant) [Phage-3581 (Peptide-180 library clone)] |  |  | 1.62 | 0.11 |  |
| AGMMCTPPWMCFGF (Clonal phage of the Peptide-180 library) [Phage-3554] |  |  |  |  | Phage binding ELISA signal, Anti-PSMA Fab (Anti-PSMA Fab [3]): 1.64; Phage binding ELISA signal, Anti-PSMA Fab with PSMA antigen (Anti-PSMA Fab [4]): 0.0664 |
| PSPICRPEWMCVWL (Tested as clonal phage supernatant) [Phage-3584 (Peptide-180 library clone)] |  |  | 1.61 | 0.0954 |  |
| HEPVCRPEWMCQGF (Tested as clonal phage supernatant) [Phage-3587 (Peptide-180 library clone)] |  |  | 1.6 | 0.0717 |  |
| LAVRCIPEWMCYGL (Clonal phage of the Peptide-180 library) [Phage-3555] |  |  |  |  | Phage binding ELISA signal, Anti-PSMA Fab (Anti-PSMA Fab [3]): 1.64; Phage binding ELISA signal, Anti-PSMA Fab with PSMA antigen (Anti-PSMA Fab [4]): 0.0644 |
| B10 | 1.63 | 0.126 |  |  |  |
| TYFRCEPSWMCTGL (Clonal phage of the Peptide-180 library) [Phage-3559] |  |  |  |  | Phage binding ELISA signal, Anti-PSMA Fab (Anti-PSMA Fab [3]): 1.64; Phage binding ELISA signal, Anti-PSMA Fab with PSMA antigen (Anti-PSMA Fab [4]): 0.073 |
| B11 | 1.62 | 0.0923 |  |  |  |
| QSMMCIPSWMCVGF (Clonal phage of the Peptide-180 library) [Phage-3556] |  |  |  |  | Phage binding ELISA signal, Anti-PSMA Fab (Anti-PSMA Fab [3]): 1.64; Phage binding ELISA signal, Anti-PSMA Fab with PSMA antigen (Anti-PSMA Fab [4]): 0.0679 |
| QLAMCVPLWMCYGF (Tested as clonal phage supernatant) [Phage-3580 (Peptide-180 library clone)] |  |  | 1.62 | 0.092 |  |
| B12 | 1.62 | 0.0695 |  |  |  |
| ESYTCVPMWMCTGF (Tested as clonal phage supernatant) [Phage-3582 (Peptide-180 library clone)] |  |  | 1.61 | 0.088 |  |
| TTLMCTPQWMCDGF (Tested as clonal phage supernatant) [Phage-3589 (Peptide-180 library clone)] |  |  | 1.6 | 0.0718 |  |
| B13 | 1.62 | 0.0691 |  |  |  |
| NLGWCVPVWMCEGF (Tested as clonal phage supernatant) [Phage-3586 (Peptide-180 library clone)] |  |  | 1.61 | 0.101 |  |
| B14 | 1.62 | 0.076 |  |  |  |
